The text below walks through data of PMC6491607, “4-Coumarate 3-hydroxylase in the lignin biosynthesis pathway is a cytosolic ascorbate peroxidase” (Nature Communications, 2019).

Substrate in the data set “purified protein”: O=C1O[C@H]([C@@H](O)CO)C(O)=C1O
The experiment in a line: purified protein. The conditions noted are these: H2O2 co-substrate, sodium phosphate pH 6, hemin reconstituted.

Substrate in data set [1]: O=C(O)/C=C/c1ccc(O)cc1
Description: HPLC of product, Hill fit. It is filed as biochemical, Arabidopsis thaliana. The conditions noted are these: H2O2 co-substrate, ascorbate 4 mM, sodium phosphate pH 6, 30 °C, hemin reconstituted.

Substrate in data set [2]: N[C@@H](Cc1ccc(O)cc1)C(=O)O
The experiment in a line: HPLC of product (L-DOPA), Hill fit. The note with it: H2O2 co-substrate, ascorbate 4 mM, sodium phosphate pH 6, 30 °C, hemin reconstituted. It is filed as biochemical, Arabidopsis thaliana.

B1: Arabidopsis C3H (4-coumarate 3-hydroxylase; cytosolic ascorbate peroxidase APX1) (Arabidopsis thaliana) (protein)
chain: MTKNYPTVSEDYKKAVEKCRRKLRGLIAEKNCAPIMVRLAWHSAGTFDCQSRTGGPFGTMRFDAEQAHGANSGIHIALRLLDPIREQFPTISFADFHQLAGVVAVEVTGGPDIPFHPGREDKPQPPPEGRLPDATKGCDHLRDVFAKQMGLSDKDIVALSGAHTLGRCHKDRSGFEGAWTSNPLIFDNSYFKELLSGEKEGLLQLVSDKALLDDPVFRPLVEKYAADEDAFFADYAEAHMKLSELGFADA
notes: full-length cDNA in pDEST17, N-terminal 6xHis tag kept, E. coli Rosetta, Ni-NTA purified, hemin reconstituted
B1: the K0.5 in “purified protein” was found to be 299 ± 63 µM; in data set [1] it was 708 ± 154 µM; in data set [2], 653 ± 127 µM. Also, the kcat in the data set “purified protein” stood at 181 s–1; in data set [1], 492 s–1; in data set [2], 599 s–1.
